The values below come from article PMC11154708.

For the assay, the target named is Rad51 (S. cerevisiae) (UniProt P25454). Kind of assay: co-IP; Rad51 immunoprecipitated with anti-Rad51 antibody from yeast lysates (Rad51 overexpressed from a plasmid), IP fraction blotted for Hsp82 and Aha1; strains WT, hda1Δ, aha1Δ and hsp82 mutant strains (K27Q, K27R, K274Q, K274R, K178R); rad51Δ as negative control; blots quantified with Image J.
UniProt P25454, sequence (P25454 whole entry): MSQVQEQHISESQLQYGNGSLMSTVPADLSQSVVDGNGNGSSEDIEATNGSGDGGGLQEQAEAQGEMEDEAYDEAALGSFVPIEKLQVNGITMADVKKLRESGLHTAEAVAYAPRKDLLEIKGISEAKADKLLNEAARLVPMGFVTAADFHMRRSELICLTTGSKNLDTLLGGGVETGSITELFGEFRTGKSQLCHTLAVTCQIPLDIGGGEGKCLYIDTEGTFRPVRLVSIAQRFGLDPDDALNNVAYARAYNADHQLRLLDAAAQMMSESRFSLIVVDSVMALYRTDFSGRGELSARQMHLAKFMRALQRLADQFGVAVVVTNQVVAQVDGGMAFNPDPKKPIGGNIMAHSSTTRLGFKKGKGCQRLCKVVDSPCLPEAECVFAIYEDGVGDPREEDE

As to “Hsp82 (WT) (from UniProt P02829 1-709) (natural protein)”, the fold reduction of association in the aha1Δ strain against the WT strain was found to be 2 fold and the fold reduction of association in the hda1Δ strain against the WT strain amounted to 5 fold.
